Patent publication US10787640B2, “Producing mesodermal cell types and methods of using the same” (The Board of Trustees of the Leland Stanford Junior …, priority 2015, dated 2020)

How the values were obtained:
[1] = test system: day 3 early somite progenitors; test: Patterning of early somite progenitors into sclerotome or dermomyotome; format: cell-based, human
Procedure: Day 2 paraxial mesoderm was briefly washed (DMEM/F12) and further differentiated into day 3 early somite/somitomere precursors for 24 hours (1 μM A-83-01+250 nM LDN-193189+1 μM C59+500 nM PD0325901). Subsequently, day 3 early somites were dorsoventrally patterned into either ventral somites/sclerotome (5 nM 21K+1 μM C59) or dorsal somites/dermomyotome (3 μM CHIR99021+150 nM Vismodegib). Sclerotome induction was conducted for 48-72 hours (leading to day 5-6 ventral somite progenitors). […] Media was changed 24 hours for all steps. The Hedgehog agonist 21K, which has been previously described in, e.g., Brunton et al., 2009 the disclosure of which is incorporated herein by reference in its entirety, was commercially synthesized.
Day 3 early somites were briefly washed (DMEM/F12), treated with BMP4+CHIR99021+Vismodegib for 24 hours, washed again (DMEM/F12) and subsequently treated with CHIR99021 (3 μM)+21K (5 nM) for 24 hours. This day 5 dermomyotome was further empirically differentiated towards skeletal muscle-like progeny (using medium containing 2% horse serum, which has been previously described in, e.g., Xu et al. 2013, the disclosure of which is incorporated herein by reference in its entirety) for 12 days, yielding day 17 skeletal muscle-containing populations.
FIG. 11: A) To determine the length of time required for sclerotome differentiation, a qPCR timecourse was performed, encompassing undifferentiated hESCs (D0), day 2 hESC-derived paraxial mesoderm (D2 PXM), day 3 hESC-derived early somite progenitors, and hESC-derived day 3 early somite progenitors that were exposed to sclerotome inductive conditions (5 nM 21K+1 μM C59) for 24 or 48 hours. B) Description of EF1α-BCL2-T2A-GFP lentiviral construct (otherwise known as “C306”; top) and FACS plot of a stably-transduced polyclonal H9 hESC line with near-uniform expression of the BCL2-T2A-GFP transgene (green contour) by comparison to uncolored wild-type hESCs (bottom) (see above methods for details of derivation of the H9 BCL2-T2A-GFP hESC line). C) Higher-magnification picture of BCL2-T2A-GFP hESC-derived sclerotome ectopic bone grafts (originally described above in FIG. 4, panel E), showing that despite the near-ubiquitous expression of GFP throughout the ectopic bone graft (indicating its human provenance), the blood vessels are clearly GFP-negative and therefore presumably derived from the mouse host; scale bar=1 mm. […] L) Description of EF1a-BCL2-T2A-GFP lentiviral construct (otherwise known as “C306”; top) and FACS plot of a stably-transduced polyclonal H9 hESC line with near-uniform expression of the BCL2-T2A-GFP transgene (green contour) by comparison to uncolored wild-type hESCs (bottom) (see the methods described herein for details of derivation of the H9 BCL2-T2A-GFP hESC line). M) Description of UBC-Luciferase-T2A-tdTomato lentiviral construct (top); bioluminescent assay of cultured H9 UBC-Luciferase-T2A-tdTomato hESCs validates that these cells are luciferase-expressing in vitro (bottom).

hESCs = test: Downstream mesoderm potential of PS induced with Activin or BMP4; format: cell-based, human
Procedure: Subsequently, day 1 anterior primitive streak was briefly washed (DMEM/F12) and differentiated towards day 2 paraxial mesoderm for 24 hours (1 μM A-83-01+3 μM CHIR99021+250 nM LDN-193189+20 ng/mL FGF2). Separately, day 1 mid primitive streak was differentiated towards day 2 lateral mesoderm for 24 hours (1 μM A-83-01+30 ng/mL BMP4+1 μM C59; with 2 μM SB-505124 sometimes used instead of A-83-01).
E) To assess whether inducing PS in the presence of TGFβ signaling altered its downstream potential to form different kinds of mesoderm, (i) H7 hESCs were differentiated into PS with CHIR99021+FGF2+PIK90 (CFK) for 24 hours in the presence or absence of increasing amounts of Activin (10-100 ng/mL), and then were transferred into paraxial mesoderm induction conditions (A-83-01+CHIR99021+DM3189+FGF2) for 24 hrs, and qPCR was conducted or (ii) H7 hESCs were differentiated into PS with BMP4 (10 ng/mL)+CHIR99021+FGF2+PIK90 (B10CFK) for 24 hours in the presence or absence of increasing amounts of Activin (10-100 ng/mL), and then were transferred into lateral/cardiac mesoderm inductions (A-83-01+BMP4+C59) for 24 hours and qPCR was conducted. […] F) To assess whether inducing PS in the presence of BMP signaling altered its downstream potential to form different kinds of mesoderm, H7 hESCs were differentiated into PS with Activin (10 ng/mL)+CHIR99021+FGF2+PIK90 (A10CFK) for 24 hours in the presence of absence of increasing amounts of BMP4 (1-40 ng/mL), and then were (i) transferred into paraxial mesoderm induction conditions (A-83-01+CHIR99021+DM3189+FGF2) for 24 hrs, and qPCR was conducted or were (ii) transferred into lateral/cardiac mesoderm inductions (A-83-01+BMP4+C59) for 24 hours and qPCR was conducted. […] G) H7 hESCs were differentiated into anterior primitive streak (30 ng/mL Activin+4 μM CHIR99021+20 ng/mL FGF2+100 nM PIK90) in the presence or absence of BMP4 (10 ng/mL) for 24 hours, and then transferred into paraxial mesoderm induction conditions for 24 hours before TBX6 immunostaining was conducted. […] H) NKX2.5-GFP hESCs were differentiated into primitive streak with BMP4+CHIR99021+FGF2+PIK90 for 24 hours in the presence or absence of increasing doses of Activin (10-100 ng/mL), and then transferred into suboptimal lateral/cardiac mesoderm induction conditions (A-83-01+BMP4+C59, without FGF2) for 48 hours and FACS was performed after 72 hours of total differentiation to quantify NKX2.5-GFP^+ cell percentages. […] I) Efficient MIXL11^+ PS specification is highly reproducible in both anterior and mid PS differentiation conditions (“APS” and “MPS”, respectively) across 4 independent differentiation experiments, as assayed by a MIXL1-GFP knock-in reporter hESC line. Each circle or triangle represents an individual experiment and the average differentiation efficiency attained across all experiments is indicated.

Cc1cnc(-c2cnc(NCCNc3ccc(C#N)cn3)nc2-c2ccc(Cl)cc2Cl)[nH]1 [CHIR99021, 6-[[2-[[4-(2,4-Dichlorophenyl)-5-(5-methyl-1H-imidazol-2-yl)-2-pyrimidinyl]amino]ethyl]amino]-3-pyridinecarbonitrile]
dorsal somite marker PAX3 and sclerotome fate ([1]; CHIR together with Vismodegib): sustained dorsal somite marker PAX3 while inhibiting the sclerotome fate

B1: BMP4: BMP family ligand, BMP agonist (protein, UniProt P12644 293-408, looked up)
Bone morphogenetic protein 4: SPKHHSQRARKKNKNCRRHSLYVDFSDVGWNDWIVAPPGYQAFYCHGDCPFPLADHLNSTNHAIVQTLVNSVNSSIPKACCVPTELSAISMLYLDEYDKVVLKNYQEMVVEGCGCR
paraxial mesoderm potential of PS (qPCR) (hESCs; PS induced in A10CFK with BMP4 (1-40 ng/mL)): strongly blocked paraxial mesoderm potential
lateral/cardiac mesoderm potential of PS (qPCR) (hESCs; PS induced in A10CFK with high BMP4 (40 ng/mL)): maximized lateral/cardiac mesoderm potential
TBX6 immunostaining after paraxial mesoderm induction (hESCs; anterior PS induced with BMP4 (10 ng/mL), 24 hours): larger numbers of TBX6^− clusters of non-paraxial mesoderm cells
PAX7 expression ([1]; 3 μM CHIR99021+150 nM Vismodegib, 48 hours, BMP4 10 ng/mL): greatly enhances the expression of PAX7
PAX7 induction in central dermomyotome ([1]; CHIR99021+Vismodegib+BMP4, 24 hours): important to induce PAX7 in central dermomyotome

B2: Activin: TGFβ agonist (protein, UniProt P08476 311-426, looked up)
Inhibin beta A chain: GLECDGKVNICCKKQFFVSFKDIGWNDWIIAPSGYHANYCEGECPSHIAGTSGSSLSFHSTVINHYRMRGHSPFANLKSCCVPTKLRPMSMLYYDDGQNIIKKDIQNMIVEECGCS
modifications: Inhibin beta A chain
notes: TGFβ agonist
lateral/cardiac mesoderm potential of PS (qPCR) (hESCs; PS induced in B10CFK with lower Activin (e.g., 10 ng/mL)): had maximal lateral/cardiac mesoderm potential
paraxial mesoderm potential of PS (qPCR) (hESCs; PS induced in CFK with higher Activin doses (e.g., 30 ng/mL)): instilled paraxial mesoderm potential
NKX2.5-GFP+ cell percentages (FACS, 72 hours) (hESCs; higher Activin doses (50-100 ng/mL) during PS induction): less effective
NKX2.5-GFP+ cell percentages (FACS, 72 hours) (hESCs; low to moderate Activin during PS induction): maximizes subsequent differentiation into NKX2.5-GFP^+ cardiac mesoderm
